Test results published in patent US20170247440A1 (Hoffmann-La Roche, published 2017).

B1: antibody 0058 (antibody, V domains shown)
VH: EVQLVESGGGLVQPGGSLRLSCAASGFTFSSFWMTWVRQAPGKGLEWVASISAGGGITHYPDSVKDRFTVSRDNAKNSLYLQLNSLRAEDTAVYYCAESGGDIYSDFDYWGQGTLVTVSS
VL: not shown
notes: Human antibody from a human Ig locus transgenic rabbit; IgG
B2: antibody 0060 (antibody, V domains shown)
VH: EVQLLESGGDLVQPGGSLRLSCAASGFTFRSYAMSWVRQAPGKGLEWVSGISAGGGYIYYADSVTGRFTSSRDNYKNTLYLQMNRLRVEDTAVYYCARFYPGYNSDTYYYDGMDVWGQGTTVTVSS
VL: not shown
notes: as for B1
B3: antibody 0064 (antibody, V domains shown)
VH: EVQLVESGGGLVQPGGSLRLSCAASGFTFSSYWMSWVRQAPGKGLEWVSTISDGGGTTSYADSVKGRFTISRDNSKNTLYLQMNSLRAEDTAVYSCAESGGATDYLFDYWGQGTLVTVSS
VL: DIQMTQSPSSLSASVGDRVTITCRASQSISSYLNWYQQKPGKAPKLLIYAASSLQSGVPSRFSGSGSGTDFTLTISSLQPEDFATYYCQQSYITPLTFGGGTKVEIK
notes: as for B1

Key:
human PDGF-BB [1] = molecular target: T1, human PDGF-BB (human, UniProt P01127 82-190); test: SPR, IgG
T1 construct: Bought recombinant protein (Cell Signaling 8921BF or R&D Systems 220-BB); also called huPDGF-BB; recombinant human PDGF-BB

human PDGF-BB [2] = molecular target: T1, human PDGF-BB; test: cell-based or functional assay
human PDGF-BB [3] = molecular target: T1, human PDGF-BB; test: SPR, IgG, apparent KD (App. KD**)
human PDGF-BB [4] = molecular target: T1, human PDGF-BB; test: cell-based or functional assay; remark: listed apart in the source
human PDGF-BB [5] = molecular target: T1, human PDGF-BB; test: inhibition ELISA: biotinylated huPDGF-BB binding to immobilized Fc-tagged huPDGF-Rβ (Example 15)
Protocol: The protein-protein interaction inhibition analysis of human PDGF-BB to the human PDGF-BB receptor was carried out using an enzyme-linked immunosorbent assay (ELISA)-based technology. The human Fc-tagged PDGF-BB receptor protein (RnD, Cat. No. 385-PR-100) was immobilized at a concentration of […] in 25 μL in PBS, 0.5% BSA and 0.05% Tween on a 384 well microtiter plate (Thermo Scientific Cat. No. 464718). Every of the following steps was followed by a washing routine of 3 times 90 μL PBS with dispense and aspiration: 1) blocking step saturating unbound surface (1 hour, 2% BSA); 2) 15 μL anti-PDGF-BB antibody in increasing concentrations was incubated with 15 μL biotinylated human PDGF-BB (Cell Signaling, Cat. No. 8921BF) at 75 nM in a volume of 30 μL for 1 hour; 3) detection was achieved using peroxidase-labeled streptavidin (Roche Diagnostics GmbH, Mannheim, Germany, Cat. No. 11089153001). 20-30 min. after adding the substrate 3,3′,5,5′-tetramethylbenzidine (TMB, Piercenet, Cat. No. 34021) the optical density was determined at 370 nm. The IC₅₀ was calculated with a four parameter logistic model using GraphPad Prism 6.0 software.

cynomolgus PDGF-BB = molecular target: T2, cynomolgus PDGF-BB (cynomolgus, UniProt A0A2K5UX81 82-190, Disulfide-linked homodimer of two identical B chains; one copy is given.); test: SPR, IgG on immobilized cynomolgus PDGF-BB (Example 18)
T2 construct: also called cynPDGF-BB
Protocol: The binding analysis was carried out using a surface plasmon resonance spectroscopy-based technology applying a BIAcore B4000 system (GE Healthcare). The antigen cynomolgus PDGF-BB was immobilized at a concentration of 1 μg/mL in PBS, 0.1% BSA, 0.05% Tween using amine coupling chemistry on a C1 sensor chip (GE Healthcare, Cat. No. BR-1005-35). Anti-PDGF-BB antibody in increasing concentrations was applied in 10 mM HEPES pH 7.2, 150 mM NaCl. Utilizing a read out time of 180 sec. association phase and 600 sec. dissociation phase the apparent kₐ and apparent kd were calculated. The apparent KD (avidity) was calculated using the BIAcore T200 v2.0 fitting software.

murine PDGF-BB = molecular target: T3, murine PDGF-BB (murine, UniProt P31240 82-190); test: ELISA, immobilized murine PDGF-BB (Example 11)
T3 construct: also called muPDGF-BB
Protocol: The binding analysis was carried out using an enzyme-linked immunosorbent assay (ELISA)-based technology. The antigen murine PDGF-BB (Peprotech 315-18) was immobilized at a concentration of 125 ng/mL in 25 μL in PBS, 0.5% BSA and 0.05% Tween on a 384 well microtiter plate (Thermo Scientific, Cat. No. 464718). Every of the following steps was followed by a washing routine of 3 times 90 μL PBS, 0.5% BSA, 0.05 Tween with dispense and aspiration: 1) blocking step: saturating unbound surface (1 hour, 2% BSA); 2) anti-PDGF-BB antibody in increasing concentrations for 1 hour; 3) detection antibody, dilution=1:3000 (ECL anti-rabbit IgG-POD, NA9340V+ECL anti-human IgG-POD, NA933V or alternatively for murine antibodies ECL anti-mouse IgG-POD; NA 9310V). 20-30 min. after adding the substrate 3,3′,5,5′-tetramethylbenzidine (TMB, Piercenet, Cat. No. 34021) the optical density was determined at 370 nm. The EC₅₀ was calculated with a four parameter logistic model using GraphPad Prism 6.0 software.

human PDGF-BB [6] = molecular target: T1, human PDGF-BB; test: SPR kinetic screening, IgG on immobilized human PDGF-BB (Example 27)
Protocol: Binding of anti-PDGF-BB antibodies to human PDGF-BB was investigated by surface plasmon resonance using a BIACORE T200 instrument (GE Healthcare). Around 20 resonance units (RU) of recombinant human PDGF-BB (5 μg/ml; ordering code 220-BB; R&D Systems) were coupled on a Series S C1 chip (GE Healthcare BR-1005-35) at pH 4.0 by using an amine coupling kit supplied by GE Healthcare. Running buffer for immobilization was HBS-N pH 7.4 (10 mM HEPES, 150 mM NaCl, pH 7.4, GE Healthcare). For the following kinetic characterization, running and dilution buffer was HBS-P pH 7.4 (10 mM HEPES, 150 mM NaCl, 0.05% Surfactant P20, pH 7.4, GE Healthcare). The flow cell was set to 25° C.—and the sample block set to 12° C.—and primed with running buffer twice.

T2 sequence (A0A2K5UX81 entry or part of it limits assumed): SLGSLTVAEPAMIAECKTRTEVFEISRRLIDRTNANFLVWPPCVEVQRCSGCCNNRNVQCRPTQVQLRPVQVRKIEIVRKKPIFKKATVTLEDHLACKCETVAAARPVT
T3 sequence (P31240 82-190): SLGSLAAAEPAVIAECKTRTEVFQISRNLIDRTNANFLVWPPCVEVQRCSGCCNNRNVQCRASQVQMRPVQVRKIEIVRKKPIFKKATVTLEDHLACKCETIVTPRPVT
T1 sequence (P01127 82-190 limits assumed): as the sequence (A0A2K5UX81 entry or part of it limits assumed) above, with V7I counted along it

Row | Binder | T½ (human PDGF-BB [1]) | Balb-C3T3 Proliferation % neutralization (human PDGF-BB [2]) | Balb-C3T3 Proliferation IC50 (human PDGF-BB [2]) | Pericytes Migration % neutralization (human PDGF-BB [2]) | Pericytes Migration IC50 (human PDGF-BB [2]) | Pericytes Proliferation % neutralization (human PDGF-BB [2]) | Pericytes Proliferation IC50 (human PDGF-BB [2]) | Kd (human PDGF-BB [3]) | IC50 Phospho-Inhibition (human PDGF-BB [4]) | IC50 Proliferation 3T3 (human PDGF-BB [4]) | IC50 (human PDGF-BB [5]) | koff (cynomolgus PDGF-BB) | kon (cynomolgus PDGF-BB) | EC50 (murine PDGF-BB) | koff (human PDGF-BB [6]) | t½ (human PDGF-BB [6])
1 | B1 | 1.42 h | 100% | 0.24 nM | 100% | 0.002 nM | 100% | 0.08 nM | 0.046 nM | 2.9 ng/mL | 79.3 ng/mL | 0.0425 µg/mL | 6.53e-05 s⁻¹ | 2.27e+06 M⁻¹ s⁻¹ | 0.0332 µg/mL | 0.000291 s⁻¹ | 40 min
2 | B2 | 1.9 h | 90% | 0.29 nM | 100% | 0.013 nM | 100% | 0.6 nM | 0.021 nM | 1.6 ng/mL | 36.3 ng/mL | 0.0554 µg/mL | < 1e-05 s⁻¹ | 330000 M⁻¹ s⁻¹ | 0.0428 µg/mL | 0.000264 s⁻¹ | 44 min
3 | B3 | 1.9 h | 100% | 0.024 nM | 100% | 0.14 nM | 100% | 0.08 nM | 0.021 nM | – | 62 ng/mL | 0.0343 µg/mL | 4.42e-05 s⁻¹ | 740000 M⁻¹ s⁻¹ | 0.00268 µg/mL | 0.000135 s⁻¹ | 85 min
